Assay results reported in patent publication US6716811B1, “Compounds having affinity for the granulocyte-colony stimulating factor receptor (G-CSFR) and associated uses” (Affymax, Inc., priority 2000, dated 2004).
pIC50: −log10 of the molar value. Where a SMILES comes first, the peptide text is derived from it. Bridges are numbered along the chain shown (N, C = ends). Roman numbers before positions name the chains, in order.

Experiments:
G-CSFR [1] = molecular target: T1, G-CSFR (Homo sapiens, UniProt Q99062); assay: G-CSF radioligand binding assay (SPA beads, 125I labeled G-CSF); settings: reduction by 50% of 125I labeled G-CSF bound to immobilized G-CSFR; overnight at 4° C.
T1 construct: incubation with soluble G-CSFR harvest; made in house
T1 sequence (Q99062 25-627): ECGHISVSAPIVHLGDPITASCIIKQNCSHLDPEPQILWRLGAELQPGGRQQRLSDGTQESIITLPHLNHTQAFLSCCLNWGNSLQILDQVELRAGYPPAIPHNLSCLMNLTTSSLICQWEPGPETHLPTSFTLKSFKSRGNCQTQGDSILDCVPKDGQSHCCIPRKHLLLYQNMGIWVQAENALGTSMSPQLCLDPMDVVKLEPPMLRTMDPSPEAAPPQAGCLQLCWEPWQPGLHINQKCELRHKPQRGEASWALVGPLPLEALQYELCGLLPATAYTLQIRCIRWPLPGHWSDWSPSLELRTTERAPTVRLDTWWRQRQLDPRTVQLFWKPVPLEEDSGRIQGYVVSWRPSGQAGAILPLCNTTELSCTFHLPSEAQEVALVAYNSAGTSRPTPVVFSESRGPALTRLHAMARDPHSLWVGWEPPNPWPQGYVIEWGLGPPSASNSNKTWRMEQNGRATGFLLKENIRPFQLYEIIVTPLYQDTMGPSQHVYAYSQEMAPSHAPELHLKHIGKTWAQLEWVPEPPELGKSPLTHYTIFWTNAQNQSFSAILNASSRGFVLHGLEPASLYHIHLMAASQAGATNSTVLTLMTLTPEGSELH
Description: Streptavidin-coated scintillation proximity assay (SPA) beads (Amersham) were mixed with biotinylated anti-receptor immobilizing antibody (Ab179) followed by incubation with soluble G-CSFR harvest. Receptor-coated SPA beads were washed twice in PBS/0.1% BSA and distributed to wells of a white polystyrene 96-well microtiter plate (Packard). Serial dilutions of peptide or peptide mimetic were mixed with a constant amount of ^125I labeled G-CSF (10^5 cpm; 1290 Ci/mmol) in PBS/0.1% BSA, added to wells containing receptor-coated SPA beads, and incubated overnight at 4° C. The binding of radiolabeled G-CSF to the receptor-coated SPA bead brings the isotope in close proximity to the scintillant, which allows the emitted radiation to stimulate the scintillant to emit light. […] The amount of ^125I labeled G-CSF that was bound at equilibrium was measured by counting the plate in a TopCount (Wallac) microtiter plate luminometer. […] One can determine the concentration at which the peptide or peptide mimetic will reduce by 50% (IC50) the amount of ^125I labeled G-CSF bound to immobilized G-CSFR.

G-CSFR [2] = molecular target: T2, G-CSFR (Homo sapiens, UniProt Q99062); assay: G-CSF competition binding assay (125I labeled G-CSF, immobilized G-CSFR in microtiter wells); set-up: made in house; settings: reduction of bound 125I labeled G-CSF; overnight at 4° C.
T2 sequence (Q99062 25-836): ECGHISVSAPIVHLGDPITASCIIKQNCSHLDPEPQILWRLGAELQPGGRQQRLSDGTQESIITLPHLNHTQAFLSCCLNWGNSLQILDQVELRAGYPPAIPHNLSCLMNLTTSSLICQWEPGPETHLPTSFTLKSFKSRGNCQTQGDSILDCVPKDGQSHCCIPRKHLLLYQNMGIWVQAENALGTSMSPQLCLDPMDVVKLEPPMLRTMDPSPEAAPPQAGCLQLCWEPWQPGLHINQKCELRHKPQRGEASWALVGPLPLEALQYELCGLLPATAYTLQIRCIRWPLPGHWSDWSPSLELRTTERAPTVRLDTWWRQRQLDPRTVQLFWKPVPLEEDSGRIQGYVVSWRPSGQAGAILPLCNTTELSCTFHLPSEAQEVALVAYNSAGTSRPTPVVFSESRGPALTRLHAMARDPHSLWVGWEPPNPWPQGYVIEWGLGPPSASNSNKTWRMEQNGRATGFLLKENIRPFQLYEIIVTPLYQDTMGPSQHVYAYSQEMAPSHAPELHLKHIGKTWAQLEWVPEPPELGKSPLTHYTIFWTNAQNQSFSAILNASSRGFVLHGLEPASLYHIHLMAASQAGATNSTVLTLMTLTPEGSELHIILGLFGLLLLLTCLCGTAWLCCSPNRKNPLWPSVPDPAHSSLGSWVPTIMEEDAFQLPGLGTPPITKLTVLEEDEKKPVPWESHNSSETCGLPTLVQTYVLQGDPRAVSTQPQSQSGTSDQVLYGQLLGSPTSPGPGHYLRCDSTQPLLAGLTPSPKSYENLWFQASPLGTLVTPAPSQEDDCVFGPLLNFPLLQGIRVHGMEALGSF
Description: Determination of competitive binding was also carried out for a number of peptides. Briefly stated, G-CSFR was purified using standard techniques. The receptor was then immobilized in microtiter plate wells that were coated with acid-treated antibody (A b179) specific for a site on G-CSFR not involved with G-CSF binding. Separately, ^125I was coupled to the natural ligand G-CSF using techniques well known in the art. Test peptides were added to receptor-coated wells and allowed to bind to immobilized receptor for approximately 30 minutes. ^125 labeled G-CSF was then introduced to the wells and incubated overnight at 4°C. Unbound ^125I labeled G-CSF was removed by washing the plate several times followed by measuring the amount of radioactivity that remained in each well using conventional techniques. […] Alternatively, if reduced amounts or no ^125I labeled G-CSF was detected, the peptide did compete.

G-CSFR [3] = molecular target: T1, G-CSFR; assay: Specific binding of peptides to G-CSFR; settings: total minus non-specific binding; unlabeled ligand typically G-CSF variant CS17
Source text: Specific binding is binding of a ligand to a specific receptor, as opposed to non-specific binding that is mediated by non-specific interactions. Specific binding may be measured by subtraction of the non-specific binding (measured in the presence of saturating concentrations of unlabeled ligand) from the total binding (measured in the absence of saturating amounts of ligand). Typically, the unlabeled ligand used was a variant of G-CSF in which the cysteine normally found at position 17 was converted to serine (CS17).

pIC50 (G-CSFR [1])	Competitive Binding? (G-CSFR [2])	Specific Binding? (G-CSFR [3])	Compound
3.70 to 6.30			CC(C)C[C@H](NC(=O)[C@H](CCCNC(=N)N)NC(=O)[C@H](CCC(=O)O)NC(=O)[C@H](C)NC(=O)[C@@H](NC(=O)[C@@H](N)CO)[C@@H](C)O)C(=O)N[C@@H](Cc1c[nH]c2ccccc12)C(=O)N[C@@H](Cc1ccccc1)C(=O)N[C@@H](CSSC[C@H](NC(=O)[C@H](Cc1ccccc1)NC(=O)[C@H](Cc1c[nH]c2ccccc12)NC(=O)[C@H](CC(C)C)NC(=O)[C@H](CCCNC(=N)N)NC(=O)[C@H](CCC(=O)O)NC(=O)[C@H](C)NC(=O)[C@@H](NC(=O)[C@@H](N)CO)[C@@H](C)O)C(=O)NCC(N)=O)C(=O)NCC(N)=O [Example 37] (I: H-STAERLWFCG-NH2 / II: H-STAERLWFCG-NH2; disulfide I:9-II:9)
< 3.70			N=C(N)NCCC[C@H](NC(=O)[C@H](CCC(=O)O)NC(=O)[C@H](CO)NC(=O)[C@H](CC(N)=O)NC(=O)[C@H](CO)NC(=O)[C@@H](N)CCC(N)=O)C(=O)N[C@@H](CCC(=O)O)C(=O)N[C@@H](Cc1c[nH]c2ccccc12)C(=O)N[C@@H](Cc1ccccc1)C(=O)N[C@@H](CSSC[C@H](NC(=O)[C@H](Cc1ccccc1)NC(=O)[C@H](Cc1c[nH]c2ccccc12)NC(=O)[C@H](CCC(=O)O)NC(=O)[C@H](CCCNC(=N)N)NC(=O)[C@H](CCC(=O)O)NC(=O)[C@H](CO)NC(=O)[C@H](CC(N)=O)NC(=O)[C@H](CO)NC(=O)[C@@H](N)CCC(N)=O)C(N)=O)C(N)=O [Example 39] (I: H-QSNSEREWFC-NH2 / II: H-QSNSEREWFC-NH2; disulfide I:10-II:10)
< 3.70			N=C(N)NCCC[C@H](NC(=O)[C@H](CCC(=O)O)NC(=O)[C@H](CO)NC(=O)[C@H](CC(N)=O)NC(=O)[C@H](CO)NC(=O)[C@@H](N)CCC(N)=O)C(=O)N[C@@H](CCC(=O)O)C(=O)N[C@@H](Cc1c[nH]c2ccccc12)C(=O)N[C@@H](Cc1ccccc1)C(=O)N[C@@H](CSSC[C@H](NC(=O)[C@H](Cc1ccccc1)NC(=O)[C@H](Cc1c[nH]c2ccccc12)NC(=O)[C@H](CCC(=O)O)NC(=O)[C@H](CCCNC(=N)N)NC(=O)[C@H](CCC(=O)O)NC(=O)[C@H](CO)NC(=O)[C@H](CC(N)=O)NC(=O)[C@H](CO)NC(=O)[C@@H](N)CCC(N)=O)C(=O)NCC(N)=O)C(=O)NCC(N)=O [Example 41] (I: H-QSNSEREWFCG-NH2 / II: H-QSNSEREWFCG-NH2; disulfide I:10-II:10)
3.70 to 6.30			CC(C)[C@H](NC(=O)[C@H](Cc1c[nH]c2ccccc12)NC(=O)[C@@H](NC(=O)[C@H](Cc1c[nH]c2ccccc12)NC(=O)CNC(=O)[C@H](CO)NC(=O)[C@H](CC(N)=O)NC(=O)[C@H](CO)NC(=O)[C@H](CCC(N)=O)NC(=O)[C@@H](N)CCC(=O)O)C(C)C)C(=O)NCC(=O)NCC(=O)NCC(=O)NCC(=O)N[C@@H](CSSC[C@H](NC(=O)CNC(=O)CNC(=O)CNC(=O)CNC(=O)[C@@H](NC(=O)[C@H](Cc1c[nH]c2ccccc12)NC(=O)[C@@H](NC(=O)[C@H](Cc1c[nH]c2ccccc12)NC(=O)CNC(=O)[C@H](CO)NC(=O)[C@H](CC(N)=O)NC(=O)[C@H](CO)NC(=O)[C@H](CCC(N)=O)NC(=O)[C@@H](N)CCC(=O)O)C(C)C)C(C)C)C(N)=O)C(N)=O [Example 46] (I: H-EQSNSGWVWVGGGGC-NH2 / II: H-EQSNSGWVWVGGGGC-NH2; disulfide I:15-II:15)
< 3.70			Ac-ESGWVW-NH2 [Example 42, Ac-ESGWVW-CONH2]
< 3.70			Ac-NSGWVW-NH2 [Example 43, Ac-NSGWVW-CONH2]
	Yes	Yes	CACMLRVVHC [Example 14]
	Yes	Yes	CADEVMHFCC [Example 3]
	Yes	Yes	CAGEVMHMCC [Example 1]
	No	Yes	CDPWMFYDLC [Example 7]
	Yes	Yes	CDVWQLFDRC [Example 4]
	No	No	CFWSDWGQTC [Example 11]
	No	No	CHANPVWGEC [Example 9]
	Yes	Yes	CNREIEAMCC [Example 2]
	Yes	Yes	CPDWYQSYMC [Example 12]
	Yes	Yes	CPHWTSYYMC [Example 13]
	No	No	CQRAGYMLAC [Example 8]
	Yes	Yes	CSFVQLNSIC [Example 5]
	No	Yes	CVPWMFYDLC [Example 6]
3.70 to 6.30			H-EQSNSGWVWV-NH2 [Example 35, NH2-EQSNSGWVWV-CONH2]
3.70 to 6.30			H-EQSNSGWVWVGGGGC-NH2 [Example 45, NH2-EQSNSGWVWVGGGGC-CONH2]
< 3.70			H-KSTGGLTAERDAEKRRWLLTHGGE-OH [Example 66]
< 3.70			H-QSNSEREWFC-NH2 [Example 38, NH2-QSNSEREWFC-CONH2]
< 3.70			H-QSNSEREWFCG-NH2 [Example 40, NH2-QSNSEREWFCG-CONH2]
< 3.70			H-STAERLWFCG-NH2 [Example 36, NH2-STAERLWFCG-CONH2]

Compound	pIC50 (G-CSFR [1])	Competitive Binding? (G-CSFR [2])	Specific Binding? (G-CSFR [3])
CETLCGACFC [Example 15]		No	No
